Laboratory results from article PMC4519330, “An Internally Translated MAVS Variant Exposes Its Amino-terminal TRAF-Binding Motifs to Deregulate Interferon Induction” (PLoS Pathogens, 2015).

Biological target: the molecule itself
Experiment: co-IP; 293T cells co-transfected; lysates in NP40 buffer (50 mM Tris-HCl pH 7.4, 150 mM NaCl, 5 mM EDTA, 1% NP40) precipitated with anti-Flag agarose at 4°C for 4-6 hours; immunoblot

B1: Flag-tagged MAVS50 (natural protein, human, UniProt Q7Z434 142-540, looked up)
chain: MPVQETQAPESPGENSEQALQTLSPRAIPRNPDGGPLESSSDLAALSPLTSSGHQEQDTELGSTHTAGATSSLTPSRGPVSPSVSFQPLARSTPRASRLPGPTGSVVSTGTSFSSSSPGLASAGAAEGKQGAESDQAEPIICSSGAEAPANSLPSKVPTTLMPVNTVALKVPANPASVSTVPSKLPTSSKPPGAVPSNALTNPAPSKLPINSTRAGMVPSKVPTSMVLTKVSASTVPTDGSSRNEETPAAPTPAGATGGSSAWLDSSSENRGLGSELSKPGVLASQVDSPFSGCFEDLAISASTSLGMGPCHGPEENEYKSEGTFGIHVAENPSIQLLEGNPGPPADPDGGPRPQADRKFQEREVPCHRPSPGALWLQVAVTGVLVVTLLVVLYRRRLH
notes: MAVS (mitochondrion antiviral signaling adaptor), variant of ~50 kDa from internal translation initiation at codon 142; also called MAVS50-Flag; Flag-MAVS50
- binding result: binds
